Experimental data taken from publication PMC7461809.

Target: EcoWI endonuclease
Assay: SEC; analytical Superdex 200 10/300 GL, 4°C, 0.38 ml/min, 100 mM NaCl, 20 mM Tris-HCl pH 8, 1 mM DTT, 0.1 mM EDTA, 5% glycerol; purified EcoWI at 2.7 mg/ml; relative molecular weight from Kav against standard proteins

**Q.** Which stoichiometry N does the source give for EcoWI endonuclease (enzyme) here?
**A.** Its stoichiometry N is 2.
